From paper PMC8719770 (PLoS ONE, 2021) come the findings set out here.

The target of assay [1] is T1, recombinant cynomolgus monkey PD-1 His tag (Macaca fascicularis (cynomolgus monkey), UniProt B0LAJ3).
T1 construct: cynomolgus monkey PD-1 extracellular domain; also called cynomolgus PD-1; source: bought: R&D Systems
Nature of the assay: BLI; Octet Red96; antibodies (5 μg/ml) captured on protein A biosensor tips; serial dilution of PD-1 as analyte, 120 sec association, 300 sec dissociation; HBS-EP+ pH 7.4, 25°C, 1000 rpm; global 1:1 fit; apparent constants. The settings on record: both partners purified.

Assay [2] concerns the target T2, human PD-1 expressed on PD-1 transfected CHO-S cells (human, UniProt Q15116).
T2 construct: human PD-1 on the surface of transfected CHO-S cells; also called cell-surface expressed PD-1; membrane PD-1; source: CHO-S, transfected, on cells
Nature of the assay: flow cytometry on cells; competition: PD-1-transfected CHO-S cells with serial diluted antibody and 0.5 μg/mL biotin-labeled PD-L2, 4°C, 30 minutes; streptavidin-PE. The settings on record: one partner purified.

Assay [3] addresses T2, human PD-1 expressed on PD-1 …. Nature of the assay: flow cytometry on cells; competition: PD-1-transfected CHO-S cells with serial diluted antibody and 5 μg/mL biotin-labeled PD-L1, 4°C, 30 minutes; streptavidin-PE. To be noted: one partner purified.
Assay [4] deals with T3, human PD-1 (recombinant; construct not stated for this experiment) (Homo sapiens, UniProt Q15116).
T3 construct: human PD-1; the ELISA and the SPR may have used different ones; SPR methods may stand in S1 File
Nature of the assay: SPR; format not told in the text shown (S1 Fig b, c). To be noted: both partners purified.

The next assay deals with T4, rat PD-1 ECD-Fc (Rattus norvegicus, UniProt D3ZIN8).
T4 construct: rat PD-1 extracellular domain; also called murine PD-1; source: bought: Sino Biological Inc
Nature of the assay: ELISA; PD-1-Fc proteins (9 ng per well) immobilized on 96-well plate overnight at 4°C; serial diluted HLX10, one hour at room temperature; detected with peroxidase-labeled goat anti-human IgG F(ab)'2. To be noted: both partners purified.

The target in a further assay is T5, mouse PD-1-ECD-Fc (Mus musculus, UniProt Q02242).
T5 construct: mouse PD-1 extracellular domain; also called murine PD-1; source: bought: Sino Biological Inc
The description is as above. To be noted: both partners purified.

B1: HLX10, fully humanized IgG4 monoclonal antibody against PD-1 receptor (antibody, V domains shown)
VH: QVQLVESGGGLVKPGGSLRLSCAASGFTFSNYGMSWIRQAPGKGLEWVSTISGGGSNIYYADSVKGRFTISRDNAKNSLYLQMNSLRAEDTAVYYCVSYYYGIDFWGQGTSVTVSS
VL: DIQMTQSPSSLSASVGDRVTITCKASQDVTTAVAWYQQKPGKAPKLLIYWASTRHTGVPSRFSGSGSGTDFTLTISSLQPEDFATYYCQQHYTIPWTFGGGTKLEIK
notes: humanized VH (CDRs of chimeric c1G4 grafted on human germline IGHV3-11*04) on a human IgG4 constant region; humanized VL (CDRs of chimeric c1G4 grafted on human germline IGKV1-39*01); IgG4, hinge-stabilized; the PDB entry holds the Fab only; also called h1G4; hIG4
For B1, the values for the Kd in assay [1] and in assay [4] were 4.78 ± 0.16 nM and 0.32 nM, respectively. Further, the koff in assay [1] is 0.000745 s⁻¹. Besides, the association rate constant (kon) in assay [1] was 153000 M⁻¹ s⁻¹. The IC50 in assay [2] was 6.46 nM; in assay [3] it was 4.36 nM. For the same molecule, the binding result with rat PD-1 ECD-Fc and with mouse PD-1-ECD-Fc was “no binding” in each case.
